Reference: the Human Domainome abundance scans (Beltran et al. 2025)
± gives the uncertainty stated by the source.

B1: Chromodomain-helicase-DNA-binding protein 5, residues 338 to 390; numbered along this chain, Q8TDI0 (parent)
chain: YETDHQDYCEVCQQGGEIILCDTCPRAYHLVCLDPELEKAPEGKWSCPHCEKE

Variants of: B1
Experiment: abundance fitness (aPCA) (normalised: wild type 0, dead -1); higher = more abundant; growth selection in yeast, the domain comes from the species named
Conditions: Homo sapiens
C50E showed an abundance fitness of 0.025 ± 0.14. Work on C50H yielded an abundance fitness of 0.231 ± 0.18. C50Q gave an abundance fitness of -0.365 ± 0.17. Work on C50M yielded an abundance fitness of -1.01 ± 0.34. C50K gave an abundance fitness of -0.405 ± 0.19. C50S gave an abundance fitness of -0.416 ± 0.12. C50R showed an abundance fitness of -0.71 ± 0.12. C50L showed an abundance fitness of -0.575 ± 0.13. With C50Y the abundance fitness was -0.507 ± 0.17. Work on C50W yielded an abundance fitness of -0.718 ± 0.18. C50A showed an abundance fitness of -0.503 ± 0.13. With C50T the abundance fitness was -0.409 ± 0.19. Variant C50F has an abundance fitness of -0.654 ± 0.23. C50D showed an abundance fitness of -0.626 ± 0.24. C50N gave an abundance fitness of -0.498 ± 0.2. With C50G the abundance fitness was -0.55 ± 0.1. With C50P the abundance fitness was -0.499 ± 0.18. With E53Y the abundance fitness was -0.219 ± 0.43. In the case of E53D, the abundance fitness is reported as 0.016 ± 0.3. E53V gave an abundance fitness of -0.29 ± 0.18. E53K showed an abundance fitness of -0.173 ± 0.4. With E53L the abundance fitness was 0.022 ± 0.29. With E53G the abundance fitness was 0.086 ± 0.13. E53C gave an abundance fitness of 0.222 ± 0.23. E53S showed an abundance fitness of -0.548 ± 0.25. Work on E53A yielded an abundance fitness of -0.246 ± 0.16. E53W showed an abundance fitness of -0.526 ± 0.23. Variant E53R has an abundance fitness of -0.341 ± 0.16. Work on S46P yielded an abundance fitness of -0.109 ± 0.13. Variant S46L has an abundance fitness of 0.051 ± 0.12. For S46I, the abundance fitness was 0.137 ± 0.24. S46T gave an abundance fitness of 0.024 ± 0.15. For S46Q, the abundance fitness was -0.331 ± 0.15. Variant S46C has an abundance fitness of 0.073 ± 0.2. With S46R the abundance fitness was -0.143 ± 0.094. For S46Y, the abundance fitness was -0.335 ± 0.16. For S46F, the abundance fitness was -0.035 ± 0.17. Work on S46M yielded an abundance fitness of -0.266 ± 0.15. S46D gave an abundance fitness of -0.197 ± 0.14. For S46W, the abundance fitness was -0.14 ± 0.13. Variant S46A has an abundance fitness of -0.11 ± 0.12. Work on S46H yielded an abundance fitness of -0.203 ± 0.22. S46K showed an abundance fitness of -0.258 ± 0.18. Work on S46N yielded an abundance fitness of -0.056 ± 0.3. Work on S46V yielded an abundance fitness of 0.011 ± 0.1. In the case of S46G, the abundance fitness is reported as -0.005 ± 0.1. Work on S46E yielded an abundance fitness of -0.023 ± 0.12. Work on K52I yielded an abundance fitness of -1.1 ± 0.42. Variant K52W has an abundance fitness of -0.082 ± 0.17. Work on K52T yielded an abundance fitness of 0.473 ± 0.14. K52C showed an abundance fitness of -0.381 ± 0.23. For K52L, the abundance fitness was -0.249 ± 0.14. K52A gave an abundance fitness of -0.182 ± 0.13. K52V gave an abundance fitness of -0.324 ± 0.12. For K52D, the abundance fitness was -0.038 ± 0.15. In the case of K52F, the abundance fitness is reported as -0.248 ± 0.22. Work on K52E yielded an abundance fitness of -0.288 ± 0.17. For K52H, the abundance fitness was 0.223 ± 0.3. Variant K52R has an abundance fitness of -0.109 ± 0.13. Work on K52M yielded an abundance fitness of 0.083 ± 0.18. For K52Q, the abundance fitness was -0.482 ± 0.2. K52S gave an abundance fitness of -0.115 ± 0.14. K52P showed an abundance fitness of -0.5 ± 0.2. With K52G the abundance fitness was 0.028 ± 0.099. For K52N, the abundance fitness was -0.378 ± 0.29. Variant P48E has an abundance fitness of -0.017 ± 0.12. P48V showed an abundance fitness of -0.04 ± 0.1. Variant P48H has an abundance fitness of -0.484 ± 0.23. Variant P48T has an abundance fitness of -0.006 ± 0.15. For P48C, the abundance fitness was 0.016 ± 0.16. With P48Y the abundance fitness was -0.022 ± 0.28. Variant P48I has an abundance fitness of 0.025 ± 0.19. Work on P48S yielded an abundance fitness of 0.016 ± 0.12. For P48F, the abundance fitness was 0.124 ± 0.23. P48Q gave an abundance fitness of -0.087 ± 0.17. Work on P48W yielded an abundance fitness of 0.01 ± 0.14. P48N showed an abundance fitness of 0.014 ± 0.24. P48M gave an abundance fitness of 0.107 ± 0.14. For P41M, the abundance fitness was -0.124 ± 0.17. P41N showed an abundance fitness of 0.18 ± 0.19. With P41Q the abundance fitness was -0.568 ± 0.2. In the case of P41T, the abundance fitness is reported as -0.17 ± 0.2. P41K gave an abundance fitness of -0.118 ± 0.17. With P41C the abundance fitness was -0.379 ± 0.17. With P41H the abundance fitness was 0.056 ± 0.17. With P41E the abundance fitness was -0.114 ± 0.13. Variant P41L has an abundance fitness of -0.135 ± 0.1. Variant P41F has an abundance fitness of -0.164 ± 0.26. P41R gave an abundance fitness of -0.075 ± 0.098. In the case of P41Y, the abundance fitness is reported as -0.443 ± 0.27. P41G gave an abundance fitness of -0.106 ± 0.12. Work on P41A yielded an abundance fitness of 0.058 ± 0.11. P41V gave an abundance fitness of -0.096 ± 0.12. P41I gave an abundance fitness of 0.117 ± 0.21. For P41W, the abundance fitness was -0.323 ± 0.15. W45G gave an abundance fitness of -0.091 ± 0.096. For W45A, the abundance fitness was -0.105 ± 0.14. Work on W45E yielded an abundance fitness of -0.202 ± 0.14. For W45P, the abundance fitness was -0.086 ± 0.18. W45Q gave an abundance fitness of -0.29 ± 0.17. With W45S the abundance fitness was -0.054 ± 0.1. Variant W45I has an abundance fitness of -0.146 ± 0.18. Variant W45D has an abundance fitness of -0.268 ± 0.13. For W45F, the abundance fitness was -0.05 ± 0.17. With W45L the abundance fitness was -0.157 ± 0.12. In the case of W45T, the abundance fitness is reported as -0.393 ± 0.16. With W45K the abundance fitness was -0.046 ± 0.22. In the case of W45M, the abundance fitness is reported as 0.115 ± 0.17. Work on W45V yielded an abundance fitness of 0 ± 0.1. Variant W45H has an abundance fitness of 0.283 ± 0.2. Work on W45Y yielded an abundance fitness of -0.293 ± 0.17. For W45C, the abundance fitness was 0.157 ± 0.14. K39E gave an abundance fitness of -0.096 ± 0.13. Work on K39Y yielded an abundance fitness of -0.278 ± 0.2. Work on K39Q yielded an abundance fitness of -0.232 ± 0.3. With K39F the abundance fitness was -0.315 ± 0.23. Variant K39M has an abundance fitness of 0.191 ± 0.2. With K39T the abundance fitness was -0.029 ± 0.18. K39S gave an abundance fitness of -0.251 ± 0.15. For K39D, the abundance fitness was -0.208 ± 0.15. In the case of K39C, the abundance fitness is reported as -0.358 ± 0.21. In the case of K39V, the abundance fitness is reported as -0.189 ± 0.11. Work on K39G yielded an abundance fitness of 0.03 ± 0.089. For K39W, the abundance fitness was -0.242 ± 0.18. K39I gave an abundance fitness of -0.045 ± 0.24. With K39L the abundance fitness was -0.002 ± 0.14. In the case of K39A, the abundance fitness is reported as -0.081 ± 0.11. K39P showed an abundance fitness of -0.091 ± 0.19. Variant C47W has an abundance fitness of -0.58 ± 0.13. For C47R, the abundance fitness was -0.922 ± 0.11. C47L gave an abundance fitness of -0.855 ± 0.12. Work on C47Y yielded an abundance fitness of -1.2 ± 0.28. Variant C47P has an abundance fitness of -0.96 ± 0.2. With C47I the abundance fitness was -0.95 ± 0.38. For C47H, the abundance fitness was -0.248 ± 0.18. With C47F the abundance fitness was -0.765 ± 0.28. Work on C47K yielded an abundance fitness of -0.599 ± 0.22. In the case of C47D, the abundance fitness is reported as 0.064 ± 0.21. Variant C47V has an abundance fitness of -0.773 ± 0.19. In the case of C47T, the abundance fitness is reported as -0.43 ± 0.14. With C47S the abundance fitness was -0.609 ± 0.12. C47Q gave an abundance fitness of -0.918 ± 0.2. Variant C47G has an abundance fitness of -0.797 ± 0.14. With C47E the abundance fitness was -0.9 ± 0.18. Variant C47A has an abundance fitness of -0.841 ± 0.15. For C47N, the abundance fitness was -0.953 ± 0.35. Work on C47M yielded an abundance fitness of -0.945 ± 0.17. With A40P the abundance fitness was -0.023 ± 0.15. With A40M the abundance fitness was 0.017 ± 0.14. Work on A40N yielded an abundance fitness of 0.187 ± 0.16. A40C showed an abundance fitness of -0.396 ± 0.16. In the case of A40K, the abundance fitness is reported as -0.218 ± 0.19. Variant A40W has an abundance fitness of -0.404 ± 0.16. With A40G the abundance fitness was -0.168 ± 0.11. A40V gave an abundance fitness of -0.033 ± 0.1. A40D gave an abundance fitness of -0.243 ± 0.19. For A40F, the abundance fitness was 0.3 ± 0.16. Variant A40I has an abundance fitness of 0.131 ± 0.16. Work on A40Q yielded an abundance fitness of -0.273 ± 0.24. With A40R the abundance fitness was -0.072 ± 0.11. In the case of A40H, the abundance fitness is reported as -0.094 ± 0.22. Variant A40E has an abundance fitness of -0.274 ± 0.17. In the case of A40Y, the abundance fitness is reported as -0.23 ± 0.18. Variant A40S has an abundance fitness of 0.024 ± 0.11. For A40T, the abundance fitness was -0.088 ± 0.13. Variant E51G has an abundance fitness of -0.095 ± 0.1. Variant E51H has an abundance fitness of -0.367 ± 0.23.
